In the DeepSol protein solubility set:

Experiment: soluble on expression in E. coli; label from the status in PepcDB or PDB records

Which “soluble on expression in E. coli” value does the source give for “MSLLQTKDYEFWFVTGSQHLYGEETLELVDQHAKSICEGLSGISSRYKITHKPVVTSPETIRELLREAEYSETCAGIITWMHTFSPAKMWIEGLSSYQKPLMHLHTQYNRDIPWGTIDMDFMNSNQSAHGDREYGYINSRMGLSRKVIAGYWDDEEVKKEMSQWMDTAAALNESRHIKVARFGDNMRHVAVTDGDKVGAHIQFGWQVDGYGIGDLVEVMDRITDDEVDTLYAEYDRLYVISEETKRDEAKVASIKEQAKIELGLTAFLEQGGYTAFTTSFEVLHGMKQLPGLAVQRLMEKGYGFAGEGDWKTAALVRMMKIMAKGKRTSFMEDYTYHFEPGNEMILGSHMLEVCPTVALDQPKIEVHSLSIGGKEDPARLVFNGISGSAIQASIVDIGGRFRLVLNEVNGQEIEKDMPNLPVARVLWKPEPSLKTAAEAWILAGGAHHTCLSYELTAEQMLDWAEMAGIESVLISRDTTIHKLKHELKWNEALYRLQKEGHHHHHH” here?
The value was “soluble”.

Which “soluble on expression in E. coli” value does the source give for “MSLMEDVGKEMSKIIQKRDINERYEELVNEVLKDQDVQAFIQANRERLTDEDIRKSYAKLYEFVQEKKKFQVNDPAMIAPGYEPRLMLNFHYIDVTYVPTADLIARQKEEEIRNRVRAMDMPKDVREANLRDFDPSSQGRAKALAEAMQFLREYPATPKEFHKGLYLQGPFGVGKSFLLGAMANALAERGFTTTIVHFPTFTVEMKQAIGRDQVGEKLDAVKKSPILMIDDIGAESMTSWIRDDVLSVILQYRMQEQLVTFFSSNLDLKALEEHLTVTQRGEQEPLKARRIMERVRYLSKEITMTGNDRRNGEGHHHHHH” here?
Its value is “soluble”.

For “MSLMKRQFEDVTRIVIKIGTSSLVLPTGKINLEKIDQLAFVISSLMNKGKEVILVSSGAMGFGLDILKMEKRPTNLAKQQAVSSVGQVAMMSLYSQIFAYYQTNVSQILLTRDVVVFPESLANVTNAFESLISLGIVPIVNENDAVSVDEMDHATKFGDNDRLSAVVAGITKADLLIMLSDIDGLFDKNPTIYEDAQLRSHVANITQEIIASAGGAGSKFGTGGMLSKVQSAQMVFENKGQMVLMNGANPRDILRVLEGQPLGTWFKQIEEVRHDEGHHHHHH”, which “soluble on expression in E. coli” value is on record?
Its value is “soluble”.

Which “soluble on expression in E. coli” value does the source give for “MSLMNAEQGVCAWAMNHPLEREYHDKEWGRAVHDDTKLFEFLTLEGAQAGLSWLTVLKKREGYRQAFLGYDLQRLAQCDESHVEQIIAEYDVVKHRGKIASVFSNARAALALQQEFGSLDAALWQFVGGQPKINRWVSMSDVPASTEESKAMSKFLKKRGFKFVGETICYAFMQACGLVNDHLVGCPNHSNADKLEGGSHHHHHH” here?
The value was “soluble”.

Which “soluble on expression in E. coli” value does the source give for “MSLMYKVLLVDDEYMILQGLTMIIDWQALGFEVVQTARSGKEALTYLTQYPVDVMISDVTMPGMTGLDLIEAAKTYHPQLQTLILSGYQEFSYVQKAMELETKGYLLKPVDKAELQAKMKQFKDCLDAQQAESIRQEAYHDSLLTLWLTDELSEKEFQQLSQGLPAAALIGFTVLYLDCQEWQAAIDAYFEQEGQPFYLKKEEDKKVYLAVLLGKTDQAKAFTYDLQKRFSRNMHQLILGETVDDWENVYESYNQVLKSLFYNCEVSPIRAKDKSKIELPESRLQFFAFNKALMIGDEPTILSKLEAIFDEMKTLNFSPEDVKHVSFLLFSDIYRQFPILDKMTYLSMVKTIHDSQSIDRILRELKKVLDVTNQNNSPEKRYSDLVSETIDCIRKEYHQELTLKAIADRLHVNGVYLGQCFKNETERSFTQYLNHVRIQKAQQLLLYTNQSINEIAYETGYNTNHYFIKMFKKLNGLSPKEFRDRYKDNYQAEGHHHHHH” here?
The value was “soluble”.

For “MSLNATIVDIARRANVTNITVSRTFNQPGLVKQETREKIHAIAKELNYVPNAFAQGLKRSSSQIIGIVTSSMYNPFYSELIQTVSRIARTQCYQIMLFDTDGSEEAEMEAIQALFGYKACGILLSPVRDDKNYQPAYLDLAETYRVPLILIDRDIYNRQLSGVFLNNKEIGLLAGKYLSEQPERKMLIIGGPAESEITRVRIEGIINALENKKNDVHIINGDYDFISQEAAVRDYLSSPQNQPDYIIGLNGILTLGAIAICHELKIYNNIKFFSIDEPPKAADYGLHIAGVYHDTQMLGEIAAELLFNAIKKPHNDQAVRREFFTGSLLTHEGHHHHHH”, which “soluble on expression in E. coli” value is on record?
The value was “soluble”.

Which “soluble on expression in E. coli” value does the source give for “MSLNDNPAWFNNPRKRAIPNSIIKRSNGQSLSPVRSDSADVPAFSNSNGFNNVTFGSKKDPRILKNVSPNDNNSANNNAHSSDLGTVVFDSNEAPPKTSLADWQKEDGIFSSKTDNIEDPNLSSNITFDGKPTATPSPFRPLEKTSRILNFFDKNTKTTPNTASSEASAGSKEGASTNWDDHAIIIFGYPETIANSIILHFANFGEILEDFRVIKDFKKLNSKNMSKSPSLTAQKYPIYTGDGWVKLTYKSELSKSRALQENGIIMNGTLIGCVSYSPAALKQLASLKKSEEIINNKTSSEGHHHHHH” here?
Its value is “soluble”.

Which “soluble on expression in E. coli” value does the source give for “MSLNEFPSRPIKLVVPYPAGGTLDIVGRNIAKMAEASLGEPIVADNVPGASGVIAHSQIARAPADGYTIGMSGLSPLVLAPHQYKNLPYSPLKDLSYVACFGETPLVLNVAISLPVKTVQELVAYAKANPGKLNYGSAGIGNASYLAAALFARQAGIEISHVPYKGNAPAMIDLVGGQIPILFDPPQTTLPQAATGKVRPLAVTSSQRFPGLPTLPTIAEAGWANYEFSIWYAMVAPAGVTLPPKNVSLAEWFNASKENGNDEDSAGALHAGIQAAARATAGTTPAARPCSVREGHHHHHH” here?
Its value is “not soluble”.

With “MSLNFTEDGTLPLLGSKDAKIAIIEFSDFQCPYCKRFTDSAFKQIKENYIDTGKVQYIARDFPLSFHAKAMGAAIAATCSLHQNSYWPMRDMLFSNVKDLGEELYQKAATDLSLNLEEFNKCMKDKSIANKVEQDLTLGKSLGIRGTPSFLIGRVENDQLIEPQIVVGAQRYAVFESLLEQLSNSDKAKEGHHHHHH” as the sequence, how does the “soluble on expression in E. coli” value read?
The value was “soluble”.

For “MSLNGSMVYGDFIRNQEVRKRITKEELGIEEDEIPERVVVTPMPFNTQFPKNFEDTLTNLGIKVNRLKVEDQILRQFGGNLLLEKDGNRGFIAFIGRGLIDFTERIRILATVSRIKDILFIGTAGSLSNEILIGDLNIPKYAIPFENVSDFYADPTIAIPQADEKLLNEVYEYAEETGVKTHSTLHATLLFPYSETTEFLNYLLNIGVSTIDMEVSAFYKMSRFYGKRAVAVLRISDMPLIELHKQEELIKARREIAVNAVFRITLRFLKLEGHHHHHH”, which “soluble on expression in E. coli” value is on record?
The value was “soluble”.

Which “soluble on expression in E. coli” value does the source give for “MSLNHTAVNTAQAIILRDLVDALLFEDIAGIVSNSEITKENGQTLLIYERETQQIKIPVYFSALNMFRYESSQPITIEGRVSKQPLTAAEFWQTIANMNCDLSHEWEVARVEEGLTTAATQLAKQLSELDLASHPFVMSEQFASLKDRPFHPLAKEKRGLREADYQVYQAELNQSFPLMVAAVKKTHMIHGDTANIDELENLTVPIKEQATDMLNDQGLSIDDYVLFPVHPWQYQHILPNVFAKEISEKLVVLLPLKFGDYLSSSSMRSLIDIGAPYNHVKVPFAMQSLGALRLTPTRYMKNGEQAEQLLRQLIEKDEALAKYVMVCDETAWWSYMGQDNDIFKDQLGHLTVQLRKYPEVLAKNDTQQLVSMAALAANDRTLYQMICGKDNISKNDVMTLFEDIAQVFLKVTLSFMQYGALPELHGQNILLSFEDGRVQKCVLRDHDTVRIYKPWLTAHQLSLPKYVVREDTPNTLINEDLETFFAYFQTLAVSVNLYAIIDAIQDLFGVSEHELMSLLKQILKNEVATISWVTTDQLAVRHILFDKQTWPFKQILLPLLYQRDSGGGSMPSGLTTVPNPMVTYDEGHHHHHH” here?
Its value is “soluble”.

Which “soluble on expression in E. coli” value does the source give for “MSLNISFIASNTLHELAAFLEKLNNIREHHVGFCGEKGSEIKATLERDFSDIGVSKSFIVGYDGMEIKGAVGLDVDTKEESAEVWGPFVDEDDPEMWLDTATILWQQLIDSLTVPVSTFQFFINQHNVNAKKFILKLNGMEKGDHDILTCDRTQFYPPLNHDVRLFTNNHTQSFKKLHDSLFPQTYYDAEEILKKINEPTNKLLIIEKEQIVIGYAYVEVEPEHGEGQIEYIGIAPDYRRQGLATQLLTNALHVLFSYPTVEDITLCVSKQNTKAIRLYQAAGFKKERQLTYFELNVDGLDNRRGRGEGHHHHHH” here?
Its value is “soluble”.

Which “soluble on expression in E. coli” value does the source give for “MSLNIYRAASVLIDEAGKNDFEISLLGKVNDLVYDTKNEYLYAVSQKGLLAKLNASNGDVIWRQSIAPETSQLNYNPVTNFIITVDKDYLYIWNSKNGILDRKIELADGKGKLFEVNKGFVYLNPHTRKFIELDLQASFSISIERDLQLDAISFLTYAEKNYVLFKRDGQFVLQALDHNYAVYGPETVLNVPENAQLLVTEKDVIIYSSNGVIYGIHVSMADISQLLIDEYKTFEWSSIPGKRHGYSITVDSQSTPVTYLFVIIDSEFVLIDEYIHEDTEALGYIHMEDNQTFSRVFAVANQIKFAPATVITIPNQLSRPVFRLFTFAEGEISAIVILDDGTFFSFSNTELVWKREEALAYAINPSILPTTLLTSYQKSIQDEENSSEGHHHHHH” here?
Its value is “soluble”.

Which “soluble on expression in E. coli” value does the source give for “MSLNKIIHHYEVFKDFYGMEEPIEQIVGFLKHAAQGLEETKQVLYLLGPVGGGKSSIAEKLKDLMERIPFYAIKGSPVFESPLSLFNPLEDGELLRERFGIPTRYLRYLMSPWAVKRLQEYNGDISKFRVIKVKPSRLKQIAIAKTEPGDENNQDISSLVGKVDIRKLEEFSQDDPDAYSYSGGLCRANRGLLEFVEMFKAPIKVLHPLLTATQEGNYNATEGLSAIPFEGIILAHSNESEWQSFRNNKNNEAFIDRINIVKVPYCLRVSEEIKIYQKLIHNSSLANAPCAPGTLDMLAQFSVLTRLKEPQNSSIYSKMRVYNGESLKDTDPKAKSYQEYRDFAGVDEGMSGISTRFAFKILSKVFNFDHTEVAANPVHLMYVLERQIEQEQFPQELHETYLNFIKEYLATKYVDFIGKEIQTAYLESYSEYGQNIFDRYITYADFWIQDQDYRDPDTGEIFDRALLNLELEKIEKPAGISNPKDFRNEVVNFVLRARANNRGKNPVWNSYEKLKSVIEKKMFTNTEDLLPVISFNAKASEEDKKKHEEFISRMVEKGYTRKQVRLLCEWYLRVRKSQEGHHHHHH” here?
Its value is “not soluble”.

Which “soluble on expression in E. coli” value does the source give for “MSLNKLCMYLERPELYKQSEINFWDDEYISKQLLKAHLDTNFEGASRNFNFIEDSVNWIVTVANPANYPKLLDLGCGPGLYAEKFAQKGYKVTGIDFSKRSINYAQNRNKETNLNINYLFQSYLNMNYNEEFDLATLIYCDYGALSTENRRLLMEKIYDSLKPGGKLILDVFTINKYNNFEEIKYWEINEDGGFWSNEKYMCLQDNCKYNDYNTLEQTLVITEKDENVFYVWNHYFSKESFLLEVENIGFKSVEFFSNVKGEAYSDDSMTMGLVLQKEGHHHHHH” here?
Its value is “soluble”.

Which “soluble on expression in E. coli” value does the source give for “MSLNLREFKEFIDNEMIVILGQMDSPTQIFEHVFLGSEWNASNLEDLQNRGVRYILNVTREIDNFFPGVFEYHNIRVYDEEATDLLAYWNDTYKFISKAKKHGSKCLVHCKMGVSRSASTVIAYAMKEYGWNLDRAYDYVKERRTVTKPNPSFMRQLEEYQGILLASKEGHHHHHH” here?
Its value is “not soluble”.

Which “soluble on expression in E. coli” value does the source give for “MSLNNQDISIGKLSRLKIWITDNHLSDDQWSNTKKFIIIKITTEDGIEGWGEAFSINFREKGIAIIIKELFREISNIPNLSIKSFYNKISLLSDGHRGLDFSSATSAIEIALWDISGKLKNLPLNSLLTKSPKPNVPIYATCWSDLKKDTNDYLRQIEKFYGKKYGGIKIYPMLDSLSISIQFVEKVREIVGDELPLMLDLAVPEDLDQTKSFLKEVSSFNPYWIEEPVDGENISLLTEIKNTFNMKVVTGEKQSGLVHFRELISRNAADIFNPDISGMGGLIDIIEISNEASNNGIFISPHCWNSMSVSASAMLHVCSSIPNSEKAEIFPDYINFSKKFCELPFDIIDNKAHINKSAGLGIVIHEDILSELSIYSLDEKSNDEGHHHHHH” here?
Its value is “soluble”.

With “MSLNNRSETMKYKRIVFKVGTSSLTNEDGSLSRSKVKDITQQLAMLHEAGHELILVSSGAIAAGFGALGFKKRPTKIADKQASAAVGQGLLLEEYTTNLLLRQIVSAQILLTQDDFVDKRRYKNAHQALSVLLNRGAIPIINENDSVVIDELKVGDNDTLSAQVAAMVQADLLVFLTDVDGLYTGNPNSDPRAKRLERIETINREIIDMAGGAGSSNGTGGMLTKIKAATIATESGVPVYICSSLKSDSMIEAAEETEDGSYFVAQEKGLRTQKQWLAFYAQSQGSIWVDKGAAEALSQHGKSLLLSGIVEAEGVFSYGDIVTVFDKESGKSLGKGRVQFGASALEDILRSQKAKGVLIYRDDWISITPEIQLLFTEFEGHHHHHH” as the sequence, how does the “soluble on expression in E. coli” value read?
The value was “soluble”.
